One test has as its target T1, hFGFR1β-Fc (IIIc) (human, UniProt P11362-14 22-285, limits assumed, biotinylated with biotin-LC-NHS).
T1 construct: Bought, R&D Systems 661-FR
T1 sequence (looked up): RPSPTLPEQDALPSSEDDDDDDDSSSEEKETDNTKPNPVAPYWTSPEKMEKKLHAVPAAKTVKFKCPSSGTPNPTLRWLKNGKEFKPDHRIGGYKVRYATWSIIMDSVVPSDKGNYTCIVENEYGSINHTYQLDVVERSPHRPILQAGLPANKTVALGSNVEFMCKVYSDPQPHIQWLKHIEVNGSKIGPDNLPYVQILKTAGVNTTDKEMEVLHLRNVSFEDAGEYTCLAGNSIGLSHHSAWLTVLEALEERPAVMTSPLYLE
Kind of test: ELISA on coated biotinylated Fc fusion. The protocol:
(§1) For the ELISA 96-well plates pre-coated with streptavidin (Pierce, 15500) were coated over night at 4° C. with 1 μg/ml biotinylated protein. Wells coated with biotinylated TRAIL-Fc served as a reference. The next day plates were washed 3 times with PBST, treated with blocking reagent, and washed again 3 times with PBST. 100 μl of purified Fabs (1 μg/ml) were added and incubated for 1 h at r.t. After washing 3 times with PBST, an anti-hIgG (Fab-specific) coupled to HRP (1:2500 diluted; Sigma; A 0293) was added and incubated for 1 h at Lt. Color reaction was developed by addition of 50 μl TMB (Invitrogen, 2023) and stopped after 5-15 min by adding 50 μl H₂SO₄ (Merck, 1120801000). Colorimetric reaction was recorded at […] in a plate reader (Tecan). Wells containing TRAIL-Fc were used as background values and the signal to background ratios were calculated as summarized in Table 4.

Another test deals with T2, hFGFR3-Fc (IIIb) (human, UniProt P22607-2 23-377, biotinylated with biotin-LC-NHS).
T2 construct: Bought, R&D Systems 1264-FR
T2 sequence (looked up): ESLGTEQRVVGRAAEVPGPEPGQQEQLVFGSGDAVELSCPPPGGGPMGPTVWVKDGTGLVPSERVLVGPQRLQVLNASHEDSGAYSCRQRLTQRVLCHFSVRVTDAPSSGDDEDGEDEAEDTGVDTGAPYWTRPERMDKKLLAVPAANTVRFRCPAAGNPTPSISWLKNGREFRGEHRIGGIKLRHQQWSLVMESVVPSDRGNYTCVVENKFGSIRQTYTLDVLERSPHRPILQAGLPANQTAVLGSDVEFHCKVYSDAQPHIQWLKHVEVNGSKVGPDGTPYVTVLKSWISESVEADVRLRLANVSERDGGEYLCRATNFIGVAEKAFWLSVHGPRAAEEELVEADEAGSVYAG
Kind of test: ELISA on coated biotinylated Fc fusion. The protocol: as §1

The next test addresses T3, hFGFR4-Fc (human, UniProt P22455 22-369, biotinylated with biotin-LC-NHS).
T3 construct: Bought, R&D Systems, printed Cat. No. 685-MF
T3 sequence (looked up): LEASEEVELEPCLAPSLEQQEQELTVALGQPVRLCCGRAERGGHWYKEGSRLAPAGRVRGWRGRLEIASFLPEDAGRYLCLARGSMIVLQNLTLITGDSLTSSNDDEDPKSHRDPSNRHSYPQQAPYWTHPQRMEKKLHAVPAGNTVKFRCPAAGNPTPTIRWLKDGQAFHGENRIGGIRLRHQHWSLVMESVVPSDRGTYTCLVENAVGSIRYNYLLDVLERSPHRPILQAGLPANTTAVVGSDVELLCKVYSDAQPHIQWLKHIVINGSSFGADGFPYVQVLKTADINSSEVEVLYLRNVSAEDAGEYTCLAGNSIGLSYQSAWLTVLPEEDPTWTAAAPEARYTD
Kind of test: ELISA on coated biotinylated Fc fusion. The protocol: as §1

A further test concerns the target T4, hFGFR2β-Fc (IIIb) (human, UniProt P21802 22-377, biotinylated with biotin-LC-NHS).
T4 construct: also called FGFR2-2β Fc (IIIb)
T4 chain: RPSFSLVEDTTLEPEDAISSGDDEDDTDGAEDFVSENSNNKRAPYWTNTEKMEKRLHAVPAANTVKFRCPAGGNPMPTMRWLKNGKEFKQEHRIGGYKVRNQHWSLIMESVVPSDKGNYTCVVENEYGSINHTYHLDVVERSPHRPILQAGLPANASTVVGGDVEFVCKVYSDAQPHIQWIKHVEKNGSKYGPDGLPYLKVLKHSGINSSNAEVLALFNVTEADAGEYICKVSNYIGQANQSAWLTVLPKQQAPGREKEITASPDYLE
Nature of the test: ELISA, 1 ug/ml Fab on coated antigen; grade of signal to background (+ 2-3, ++ 3-5, +++ >5). As to the method: as §1

The target of the next test is T5, hFGFR2α-Fc (IIIb) (human, UniProt P21802 22-377, biotinylated with biotin-LC-NHS).
T5 construct: Bought, R&D Systems 663-FR, soluble Fc fusion
T5 chain: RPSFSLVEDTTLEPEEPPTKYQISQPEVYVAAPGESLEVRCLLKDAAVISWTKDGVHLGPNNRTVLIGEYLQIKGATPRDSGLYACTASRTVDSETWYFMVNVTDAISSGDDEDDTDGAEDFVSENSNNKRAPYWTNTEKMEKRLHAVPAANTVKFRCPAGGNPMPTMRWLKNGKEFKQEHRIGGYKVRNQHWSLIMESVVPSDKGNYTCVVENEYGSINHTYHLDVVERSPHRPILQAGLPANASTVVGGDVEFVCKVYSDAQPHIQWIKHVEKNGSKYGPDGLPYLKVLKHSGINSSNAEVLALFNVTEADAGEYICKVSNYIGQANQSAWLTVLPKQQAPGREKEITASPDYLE
The test is described as above. The protocol: as §1

Another test addresses T6, mFGFR2β-Fc (IIIb) (murine, UniProt P21803-2 22-263, limits assumed, biotinylated with biotin-LC-NHS).
T6 construct: Bought, R&D Systems 708-MF
Described as above. As to the method:
as §1

The source of these data is patent US20140322220A1 (Bayer, published 2014).

A value given as a limit tells only on which side of the number the result lay.

T6 sequence (P21803 other isoform, or with tags, fused parts or gaps limits assumed): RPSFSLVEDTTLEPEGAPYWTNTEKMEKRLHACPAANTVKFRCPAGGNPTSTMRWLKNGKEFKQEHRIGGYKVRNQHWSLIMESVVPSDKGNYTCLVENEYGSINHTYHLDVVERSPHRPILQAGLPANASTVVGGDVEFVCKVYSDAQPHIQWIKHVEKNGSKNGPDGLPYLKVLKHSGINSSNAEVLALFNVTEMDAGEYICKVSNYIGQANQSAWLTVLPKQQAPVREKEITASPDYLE

B1: M054-A05 (soluble Fab) (Fab, V domains shown)
VH: EVQLLESGGGLVQPGGSLRLSCAASGFTFSNYGMYWVRQAPGKGLEWVAVISYDGTNKYYVDSVKGRFTISRDNSKNTLYLQMNSLRAEDTAVYYCAKDLPKWGGFDSWGQGTLVTVSS
VL: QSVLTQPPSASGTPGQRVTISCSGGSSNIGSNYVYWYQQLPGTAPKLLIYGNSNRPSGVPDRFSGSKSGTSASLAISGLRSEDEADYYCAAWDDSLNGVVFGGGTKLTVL
notes: Soluble Fab from E. coli, purified through its His-tag
Turning to B1, the binding result with hFGFR1β-Fc (IIIc), with hFGFR3-Fc (IIIb) and with hFGFR4-Fc was “no binding” throughout. The “ELISA signal to background ratio” value in the test with hFGFR2β-Fc (IIIb) was 3 to 5 ratio; with hFGFR2α-Fc (IIIb), more than 5 ratio; with mFGFR2β-Fc (IIIb), more than 5 ratio.

B2: M017-B02 (soluble Fab) (Fab, V domains shown)
VH: EVQLLESGGGLVQPGGSLRLSCAASGFTFRTSGMHWVRQAPGKGLEWVAVISYDGSNKYYADSVKGRFTISRDNSKNTLYLQMNSLRAEDTAVYYCARESPGYDFEYWGQGTLVTVSS
VL: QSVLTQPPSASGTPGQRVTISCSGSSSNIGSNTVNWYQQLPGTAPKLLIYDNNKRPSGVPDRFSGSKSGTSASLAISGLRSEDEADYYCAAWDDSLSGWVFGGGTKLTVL
notes: as for B1
As to B2, the binding result with hFGFR1β-Fc (IIIc), with hFGFR3-Fc (IIIb) and in the test with hFGFR4-Fc was “no binding” in each case. For the same molecule, the “ELISA signal to background ratio” value in the test with hFGFR2β-Fc (IIIb), with hFGFR2α-Fc (IIIb) and in the test with mFGFR2β-Fc (IIIb) was more than 5 ratio throughout.

B3: M054-D03 (soluble Fab) (Fab, V domains shown)
VH: EVQLLESGGGLVQPGGSLRLSCAASGFTFSNYGMHWVRQAPGKGLEWVAVISYDGSNKYYADSVKGRFTISRDNSKNTLYLQMNSLRAEDTAVYYCAKETNDVPFDYWGQGTLVTVSS
VL: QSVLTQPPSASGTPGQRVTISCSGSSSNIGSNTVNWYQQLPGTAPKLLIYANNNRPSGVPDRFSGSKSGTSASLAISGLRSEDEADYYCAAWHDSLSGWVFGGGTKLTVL
notes: as for B1
As to B3, the binding result in the test with hFGFR1β-Fc (IIIc), with hFGFR3-Fc (IIIb) and in the test with hFGFR4-Fc was “no binding” each time. Further, the figures for the “ELISA signal to background ratio” value with hFGFR2β-Fc (IIIb), in the test with hFGFR2α-Fc (IIIb) and with mFGFR2β-Fc (IIIb) were 2 to 3 ratio, 3 to 5 ratio and 3 to 5 ratio, respectively.

B4: M047-D08 (soluble Fab) (Fab, V domains shown)
VH: EVQLLESGGGLVQPGGSLRLSCAASGFTFRTSGMHWVRQAPGKGLEWVAVISYDGSNKYYADSVKGRFTISRDNSKNTLYLQMNSLRAEDTAVYYCARESPGYDFEYWGQGTLVTVSS
VL: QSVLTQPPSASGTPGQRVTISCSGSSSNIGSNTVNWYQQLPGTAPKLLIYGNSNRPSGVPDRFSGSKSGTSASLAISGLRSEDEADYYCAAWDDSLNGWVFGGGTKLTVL
notes: as for B1
For the molecule B4, the binding result with hFGFR1β-Fc (IIIc), with hFGFR3-Fc (IIIb) and in the test with hFGFR4-Fc was “no binding” throughout. For the same molecule, the “ELISA signal to background ratio” value with hFGFR2β-Fc (IIIb), in the test with hFGFR2α-Fc (IIIb) and with mFGFR2β-Fc (IIIb) was more than 5 ratio each time.
